Experiment: yeast display, Sf9 membrane polyspecificity reagent, FACS + sequencing; frameworks hold sequencing errors
Outline: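 Synthetic nanobody libraries on Saccharomyces cerevisiae BJ5465 were galactose-induced for 36–48 hours, stained 1 hour at 4 °C with 10% biotinylated, detergent-solubilized Sf9 membrane reagent and enriched on streptavidin microbeads. FACS then separated cells into low and high (top ~1%) gates by anti-HA (expression) and streptavidin (reagent binding) fluorescence. Genes were colony-PCR amplified, MiSeq 2 × 250 sequenced and CDR-length filtered. A clone's polyreactivity label is that of its gate of origin.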

For “QVQLVESGGGLVQAGGSLRLSCAASGFIFYRYTMGWYRQAPGKERELVAAISGSGGSTYYADSVKGRFTISRDNAKNTVYLQMNSLKPEDTAVYYCAAAHRYWGQGTQVTVSS”, the “polyreactivity (PSR sort gate)” value was “high polyreactivity”.
For “QVQLVESGGGLVQAGGSLRLSCAASGFIFYSNAMGWYIQAPGKEREVVAAISWDAGSTYYADSVKGRFTISRDNAKNTVYLQMISLKPEDSAVYYCATDRIVGRYIYNYWGQGTQVTVSS”, the “polyreactivity (PSR sort gate)” value was “high polyreactivity”.
For “QVQLVESGGGLVQAGGSLRLSCAASGFIFYSNAMGWYRQAPGKARELVAAISWGGGRTYYADSVKGRFTISRDNAKNTVYLQMNSLKPEDTAVYYCAADTIVGNGIKFDYWGQGTQVTVSS”, the “polyreactivity (PSR sort gate)” value was “high polyreactivity”.
For “QVQLVESGGGLVQAGGSLRLSCAASGFIFYSYAMGWYRQAPGKERELVAAIDWDDGTTYYADSVKGRFTISRDNAKNTVYLQMNSLNPEDTAVYYCAAESYYGAYDYWGQGTQVTVSS”, the “polyreactivity (PSR sort gate)” value was “high polyreactivity”.
With “QVQLVESGGGLVQAGGSLRLSCAASGFIFYTYAMGWYRQAPGKERELVAAISRGGRTNYADSVKGRFTISRDNAKNTVYLQMNSLKPEDTAVYYCASSYSHRYDYWGQGTQVTVSS” the “polyreactivity (PSR sort gate)” value was “high polyreactivity”.
For “QVQLVESGGGLVQAGGSLRLSCAASGFIFYTYAMGWYRQAPGKERELVAAISWNGGSTNYADSVKGRFTISRDNAKNTDYLQMNSLKPEDTAVYYCAARSVSTLRYTSRKLRYDYWGQGTQVTVSS”, the “polyreactivity (PSR sort gate)” value was “high polyreactivity”.
For “QVQLVESGGGLVQAGGSLRLSCAASGFIFYTYAMGWYRQAPGKERELVAAISWRGGRTYYADSVKGRFTISRDNAKNTVYLQMNSLKPEDTAVYYCNAVTSSGEYDYWGQGTQVTVSS”, the “polyreactivity (PSR sort gate)” value was “high polyreactivity”.
With “QVQLVESGGGLVQAGGSLRLSCAASGFIFYWYAMGWYRQAHGKERELVARITQSVGRTYYADSVKGRFTISRDNAKNTVYLQMNSLKPEDTAVHYCATDYGSYWSGAAYERYDYWGQGTQVTVSS” the “polyreactivity (PSR sort gate)” value was “low polyreactivity”.
For “QVQLVESGGGLVQAGGSLRLSCAASGFIFYYNAMGWYRHAPGKERELDAGISRSAGSTYYADSVKGRFTISRDNAKNSVYLHMNSLTPEDTAVYYCAARYLSYITGTSYYWGQVTQVTVSS”, the “polyreactivity (PSR sort gate)” value was “low polyreactivity”.
In the case of “QVQLVESGGGLVQAGGSLRLSCAASGFIFYYNGMGRYRQAPGKERELVAAISGGVGSTYYADSVKGRFTISRDNAKNTVYLQMNSLKPEDTAVYYCNAKLYKPPFDYWGQGTQVTLSS”, the “polyreactivity (PSR sort gate)” value is reported as “low polyreactivity”.
For “QVQLVESGGGLVQAGGSLRLSCAASGFIFYYYAMGWYRPAPGKERELVAAISGESTSTYYADSVKGRFTISRDNAKNTVYLQMNSLKPEDTALYYCAADLYHWDGYEYWGQGTQVTVST”, the “polyreactivity (PSR sort gate)” value was “high polyreactivity”.
For “QVQLVESGGGLVQAGGSLRLSCAASGFIFYYYAMGWYRPAPGKERELVAAISGSGGSTYYADSVKGRFTISRDNAKNTGYLQMNSMNPEDTAVYYCAAVQAAGSHAYDYWGQGTQVTVSS”, the “polyreactivity (PSR sort gate)” value was “high polyreactivity”.
For “QVQLVESGGGLVQAGGSLRLSCAASGFIFYYYAMGWYRQAPGKERELVAAITQGGGSTYYADSVKGRFTISRDNAKNTVFLQMNSLKPEDTAVYYCAAVKRVYAHSRAFSSDFYYWGQGTQVTVSS”, the “polyreactivity (PSR sort gate)” value was “high polyreactivity”.
For “QVQLVESGGGLVQAGGSLRLSCAASGFIGWYAMGWYRQAPGNEREFVAAISASGGSTYYADSVKGRFTISRDNAKNTVYLQMNSLKPEETAVYYCAAYYRAYNPRRFYYWGQGTQVTVSS”, the “polyreactivity (PSR sort gate)” value was “high polyreactivity”.
For “QVQLVESGGGLVQAGGSLRLSCAASGFIIDDNTMGWYRQAPGKEMELVAAISYSAGSTYYADSVKGRFTISRDNAKNTVYLQMNSVKPEDTAVYYCAAQHYWVTSYLSSSDYWGQGTQVTVSS”, the “polyreactivity (PSR sort gate)” value was “low polyreactivity”.
For “QVQLVESGGGLVQAGGSLRLSCAASGFIIDGYAMGWYRQAPVKERELVAVISQRGSNTYYADSVKGRFTISRDNAKNTVYLQMNSLKPEDTAVYYCAARYKQGDSTGGRMNYWGQGTQVTVSS”, the “polyreactivity (PSR sort gate)” value was “high polyreactivity”.
In the case of “QVQLVESGGGLVQAGGSLRLSCAASGFIIDSNAMGWYRQAPGKERELVAAIDYSGGSTYYADSVKGRFTISRDNAKNTVYLQMNSLKPEDTAFYYCAAEYHGYRYNYYPYSHYFIYEYWGQGTQVTVSS”, the “polyreactivity (PSR sort gate)” value is reported as “high polyreactivity”.
In the case of “QVQLVESGGGLVQAGGSLRLSCAASGFIIGSYAMGWYRQAPGTERELVAAITRSGGNTYYADSVKGRFTISRDNAKNTVYLQMNSLKPEDTAVYYCAAYSGYWYDYWGQGTQVTVSS”, the “polyreactivity (PSR sort gate)” value is reported as “high polyreactivity”.
With “QVQLVESGGGLVQAGGSLRLSCAASGFIIGYYAMGWYRQAPGKERDLVAAISSTGGSTYYADSVKGRFTISRDNAMNTVYLQMNSLKPEDTAVYYCAKRFAYYRYHPGYDYWGQVTQVTVSS” the “polyreactivity (PSR sort gate)” value was “high polyreactivity”.
For “QVQLVESGGGLVQAGGSLRLSCAASGFIIKSYAMGWYRQAPGKERELVAAISYTGSITYYADSVKGRFTISRDNAKNTVYLQMNSLKPEDTSVYYCAVGRYADQNDYWGQGTQVTVSS”, the “polyreactivity (PSR sort gate)” value was “high polyreactivity”.
In the case of “QVQLVESGGGLVQAGGSLRLSCAASGFIIKWYAMGWYRQAPGKERELLAAISIDGGSTYYADSVKGRFTISRDNAKNTVYLQMNSLLPEDTAVYYCNAGYNGTQYLTRDYGLGMDYWGLGTQVTVSS”, the “polyreactivity (PSR sort gate)” value is reported as “low polyreactivity”.
For “QVQLVESGGGLVQAGGSLRLSCAASGFIIQGNAMGWYRQAPGKERELVAAISSCVSTYYADSVKGRFTISRDNAKNTVYLQMNSLKPEDTAVYYCNAGFPLSLWLGDYWGQGTHVTVSS”, the “polyreactivity (PSR sort gate)” value was “low polyreactivity”.
For “QVQLVESGGGLVQAGGSLRLSCAASGFIISHYAMGWYRQAPGKERELVAAISSSGGSTYYADSVKGRFTISRDNAKNTVYLQMNSLKPEDTAVYYCAAAAGAYDYDYWGQGTQVNVSS”, the “polyreactivity (PSR sort gate)” value was “high polyreactivity”.
For “QVQLVESGGGLVQAGGSLRLSCAASGFIISPYAMGWYRQAPGKERELVAAISWSGVSTYYADSVKGRFTISRDNAKNTVYLQMNSLKPEDTAVYYCATYRPVYYWGQGTQVTVSS”, the “polyreactivity (PSR sort gate)” value was “high polyreactivity”.
With “QVQLVESGGGLVQAGGSLRLSCAASGFIISPYARGWYRQAPGKETELVAAISWSGVSTYYADSVKGRFTMSRDNAKNTVYLQMNSLNPEDTAVYYCAADPYCVKYRYGDDYWGQGTQVTVSS” the “polyreactivity (PSR sort gate)” value was “high polyreactivity”.
With “QVQLVESGGGLVQAGGSLRLSCAASGFIISVYAMGWYRPAPGKERELVARIDSGGSTYYADSVKGRFTISRDNAKNTVYLQMNSLKPEDTAVYYGATDEGTVGGQQLRPLMDYWGQGTQVTVSS” the “polyreactivity (PSR sort gate)” value was “low polyreactivity”.
With “QVQLVESGGGLVQAGGSLRLSCAASGFIITSYAMGWYRQAPGKERELVAAINGGGSTYYADSVKGRFTISRDNAKNTVYLQMNSLKPEDTAVYYCAAKFRAGRSSYYWGQGTQVTVSS” the “polyreactivity (PSR sort gate)” value was “high polyreactivity”.
With “QVQLVESGGGLVQAGGSLRLSCAASGFIITTYAMGWYRQAPGTEREVVAGISSSGGSTRYADSVKGRFTISRDNAKNTVYLQMNSLKPEDTAVYYCNVLRYRGYDYWGQGTQVTVSS” the “polyreactivity (PSR sort gate)” value was “high polyreactivity”.
For “QVQLVESGGGLVQAGGSLRLSCAASGFIIVRNALGWYRQAPGKERELVAAMRWSGGSTYYADSEKGRFTISRDNSKNTDYLQMNSLKPEDTAVYYCAARLWLKVQYLRFFVYDYWGQGTQVTVSS”, the “polyreactivity (PSR sort gate)” value was “low polyreactivity”.
With “QVQLVESGGGLVQAGGSLRLSCAASGFIIYGYAMGWYRQAPGKESELVAAISRRSASTYYADSVKGRFTISRDNAKNTVYLQMNSLNPEDTAVYYCNAASARGVIGYKPLWYARGYWGQGTQVTVSS” the “polyreactivity (PSR sort gate)” value was “high polyreactivity”.
For “QVQLVESGGGLVQAGGSLRLSCAASGFIIYRNPMGWYRQAPGKERELVAGISSGGSTNYADSVKGRFTISRDNEKNTVYLQMNSLKPEDTAVYYCASRVYALWFGRYDYWGQGTQVIVSS”, the “polyreactivity (PSR sort gate)” value was “high polyreactivity”.
In the case of “QVQLVESGGGLVQAGGSLRLSCAASGFIIYSYAMGWYRQAPGKERELVAVISSRGGTTYYADSVKGRFTISRDNAKNTVYLQMNSLKPEDTAVYSCNVDRLGQRSDYWGQGTQVTVSS”, the “polyreactivity (PSR sort gate)” value is reported as “low polyreactivity”.

From the nanobody polyreactivity screen of Harvey et al. (2022)
